Data reported in patent publication US20150018665.

Experiments:
[1] = system: TEV protease sensor, StrepII-GFP-(linker)-(protease site)-CGRP-Gly fusion with GGSG linker and ENLYFQG protease site, uncleaved
[2] = system: Caspase-3 sensor, StrepII-GFP-(linker)-(protease site)-CGRP-Gly fusion with GGSG linker and DEVD protease site, uncleaved
[3] = system: Enterokinase sensor, StrepII-GFP-(linker)-(protease site)-CGRP-Gly fusion with GGSG linker and DDDDK protease site, uncleaved

Tobacco Etch Virus (TEV) protease
proteolytic cleavage of the sensor, read by CGRP receptor activation [1]: after being cleaved by their respective protease

caspase-3
proteolytic cleavage of the sensor (MALDI spectrum) [2]: MALDI spectrum showing cleavage of caspase sensor | proteolytic cleavage of the sensor, read by CGRP receptor activation [2]: after being cleaved by their respective protease

enterokinase
proteolytic cleavage of the sensor, read by CGRP receptor activation [3]: after being cleaved by their respective protease
